Data on three molecules can be found in patent US9115359B2, “Methods for producing secondary metabolites” (NewSouth Innovations Pty Limited, priority 2007, dated 2015).

The target of data set [1] is truncated SACP, SACP3 (Synechocystis sp. PCC6803) (UniProt P20804).
Data set [2] addresses Bacillus brevis ATCC8185 NRPS peptidyl carrier protein involved in tyrocidine biosynthesis (TycPCP) (Bacillus brevis ATCC8185).
In a further data set the test system is MPCP. Kind of data set: Sppt in vitro phosphopantetheinylation of non-cognate carrier proteins, ESI-MS. The format is biochemical, M. aeruginosa PCC7806. Conditions: 30 min reaction. The procedure: (§1) Sppt activity towards SACP was determined in a 10 min phosphopantetheinylation assay at 37° C. as previously described in Copp J. N., Roberts A. A., Marahiel M. A., Neilan B. A., 2007, Characterization of PPTNs, a cyanobacterial phosphopantetheinyl transferase from Nodularia spumigena NSOR10. J Bacteria 189(8):3133-9. Briefly, the 100-200 μl reactions comprised of 50 mM Tris-HCl pH 7.4, 12.5 mM MgCl2, 0.5 mM CoA, 2 μM DTT, 100 μM carrier protein and 300 nM Sppt. Reactions were incubated for 10 min at 37° C., terminated by the addition of 1 ml trichloroacetic acid and precipitated overnight at −20° C. before centrifugation for 15 min at 18,000×g. Samples were dissolved in water:acetonitrile:formic acid (50:49:1). Phosphopantetheinylation was observed by an increase in mass of 340 Da as visualised by electrospray ionisation mass spectrometry (ESI-MS). […]
(§2) The ability of Sppt to activate carrier proteins from a range of secondary metabolism pathways was tested, including those from unicellular and filamentous, heterocyst-forming cyanobacteria. […] Protein concentrations were determined based on the calculated extinction coefficients: NpArCP 8,250 cm^−1M^−1, NpACP 13,940 cm^−1M^−1, MPCP 6,970 cm^−1M^−1 and TycPCP 9,530 cm^−1M^−1. Phosphopantetheinylation assays were carried out in 30 min reactions and analysed by ESI-mass spectrometry described in Example 4 above.

A further data set has as its system NpArCP. Described as above. It is filed as biochemical, N. punctiforme ATCC29133. To be noted: 30 min reaction. The protocol: as §1, §2
For another data set, the system named is NpACP. Described as above. It is filed as biochemical, N. punctiforme ATCC29133. To be noted: 30 min reaction. The protocol:
as §1, §2

The next data set concerns TycPCP. The data set is described as above. The format is biochemical, Bacillus brevis ATCC8185. To be noted: 30 min reaction; estimated from holo- and apo-CP abundance in mass spectra. The protocol: as §1, §2
Substrate in data set [3]: CC(C)(COP(=O)(O)OP(=O)(O)OC[C@H]1O[C@@H](n2cnc3c(N)ncnc32)[C@H](O)[C@@H]1OP(=O)(O)O)[C@@H](O)C(=O)NCCC(=O)NCCS
Kind of data set: Phosphopantetheinylation assay with HPLC analysis: kinetics of Sppt with respect to CoA, carrier protein SACP3 (truncated SACP). It is filed as biochemical, Synechocystis sp. PCC6803. To be noted: other: Michaelis-Menten fit, 37° C. An excerpt: Sppt and SACP were expressed and purified to determine the activity of Sppt via phosphopantetheinylation assays. Sppt was amplified by the primer pair SynPpF (5′-TGTTTAAACTCACCTG-3′) (SEQ ID NO: 9) and SynPpR (5′-CCCAAGGTTACGAAAC-3′) (SEQ ID NO: 10). The resulting PCR product was cloned into pGEM-T (Promega), digested with the restriction enzymes SacI and EcoRV and ligated into pET30 (Novagen, San Diego, Calif.). The Synechocystis sp. PCC6803 fatty acid synthesis (FAS) ACP, designated SACP (AcpP BA000022), was amplified by the primer pair ssl2084Efw (5′-[…]-3′) (SEQ ID NO: 11) and ssl12084 Hry (5′-[…]-3′) (SEQ ID NO: 12), digested with the restriction enzymes EcoRI and HindIII, and cloned into pET30. A truncated SACP, SACP3, was cloned and expressed for HPLC kinetic analysis using the primers 2084NdeF (5′-[…]-3′) (SEQ ID NO: 13) and 2083XhoR (5′-[…]-3′) (SEQ ID NO: 14).
The constructs were transformed into BL21(DE3) Rosetta (Novagen) for expression. Sppt was expressed at 37° C., with an induction concentration of 1 mM isopropyl-beta-D-thiogalactopyranoside (IPTG), for 3 hours. SACP and SACP3 were expressed at 37° C. with 1 mM IPTG for 20-40 min. Cultures were harvested at 5,000×g and cell pellets were stored at −80° C. Cell pellets were resuspended in Hepes buffer (Hepes 50 mM, NaCl 150 mM pH 7.4) and passaged three times through a cooled French pressure cell at […] (Paton Scientific, Victor Harbor, South Australia). […]
The protein concentrations were determined based on the calculated extinction coefficients: SACP 6,970 cm^−1M^−1, Sppt 53,110 cm^−1M^−1. […]
Sppt activity towards SACP was determined in a 10 min phosphopantetheinylation assay at 37° C. as previously described in Copp J. N., Roberts A. A., Marahiel M. A., Neilan B. A., 2007, Characterization of PPTNs, a cyanobacterial phosphopantetheinyl transferase from Nodularia spumigena NSOR10. […]
The CoA inhibition and pH activity range for Sppt was determined using in vitro phosphopantetheinylation assays with the truncated SACP3. […]

Consider “Synechocystis sp. PCC6803 phosphopantetheinyl transferase (Sppt) (from UniProt Q55185) (enzyme)”, for which the kcat of phosphopantetheinylation of SACP3 (HPLC assay, CoA varied) (min^-1 (printed min^d)) in data set [1] came out at 28.4. The molecule also registered a phosphopantetheinylation of the carrier protein (30 min assay, ESI-MS; % holo-CP) in data set [2] of 54%.

B1: Sppt: Synechocystis sp. PCC6803 phosphopantetheinyl transferase (slr0495, Swissprot Q55185) (protein)
chain: MLPQPQIWLCPTDRPLIPGYQALLSSEEMARGERYQRPQDKQRFLTMRLALRILLARQLDCLPQQLQFTYGPQGKPELVDRERRSPWFNVAHSGNYGLIGLSTEGEIGVDLQIMLPKPHYLKLAKRFFAPQEVQQLESLEGEKRTKLFYQLWTAKEAFLKATGKGISGGLNQVIPDENLAKYQYLPDSGDTNHWRLSSQPLLADQGSNDNYWMAIAWCTNEVNQVESNYLPNIQPFQWPRNLDSLP
As to B1, in the data set on MPCP, the “phosphopantetheinylation of MPCP” value was “small mass peak corresponding to the addition of a 340 Da phosphopantetheinyl moiety”. Besides, in the data set on NpArCP, the “phosphopantetheinylation of NpArCP” value is given as “unable to phosphopantetheinylate”. For the same molecule, in the data set with NpACP, the “phosphopantetheinylation of NpACP” value was “not reproducibly detected”. Also, in the data set with TycPCP, the “TycPCP phosphopantetheinylated (% holo-CP)” value is “approximately 54%”.

B2: Synechocystis sp. PCC6803 phosphopantetheinyl transferase Sppt (slr0495, Swissprot accession number Q55185) (Synechocystis sp. PCC 6803 substr. Kazusa) (protein)
chain: MAISAEFALCLNSPVLPQPQIWLCPTDRPLIPGYQALLSSEEMARGERYQRPQDKQRFLTMRLALRILLARQLDCLPQQLQFTYGPQGKPELVDRERRSPWFNVAHSGNYGLIGLSTEGEIGVDLQIMLPKPHYLKLAKRFFAPQEVQQLESLEGEKRTKLFYQLWTAKEAFLKATGKGISGGLNQVIPDENLAKYQYLPDSGDTNHWRLSSQPLLADQGSNDNYWMAIAWCTNEVNQVESNYLPNIQPFQWPRNLHSLPSFRYLGKGEFQHTGGRY
notes: carrier-protein substrate truncated SACP3
As to B2, in data set [3], the Km amounted to 169.17 ± 37.48 µM, the kcat is 28.4 min⁻¹ and the kcat/Km was determined as 0.168 µM⁻¹ min⁻¹.
